This is an account of results in paper PMC7083938 (2020).

Experiment [1] concerns the target T1, Robo1 FN1 mouse (Mus musculus (Mouse), UniProt O89026).
T1 chain: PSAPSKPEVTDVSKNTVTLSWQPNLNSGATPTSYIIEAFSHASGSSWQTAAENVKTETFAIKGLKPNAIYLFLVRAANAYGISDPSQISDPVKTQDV
The experiment can be described thus: SPR equilibrium.

The target in experiment [2] is T2, Robo3 FN1 mouse (Mus musculus (Mouse), UniProt Q9Z2I4).
T2 chain: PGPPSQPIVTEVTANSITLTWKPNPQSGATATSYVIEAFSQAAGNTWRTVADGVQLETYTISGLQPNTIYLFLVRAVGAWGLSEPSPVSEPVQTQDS
The experiment can be described thus: SPR equilibrium.

B1: NELL2 mouse (protein)
chain: DIDECAEGRHYCRENTMCVNTPGSFMCICKTGYIRIDDYSCTEHDECLTNQHNCDENALCFNTVGGHNCVCKPGYTGNGTTCK
As to B1, the figures for the Kd in experiment [1] and in experiment [2] were 13.8 µM and 0.71 µM, respectively.

For orientation: Kd means the free concentration of one partner at which half of the binding sites on the other are occupied at equilibrium, for simple one-to-one binding. A lower Kd goes with a tighter complex.
